Assay results as given in patent US20040043959A1, “Combination therapies for treating methylthioadenosine phosphorylase deficient cells” (priority 2002, published 2004).

Assays:
Assay in all cases: MTAP substrate assay, coupled spectrophotometric (adenine, xanthine oxidase)
Type in all cases: biochemical, human
Details in all cases: other: substrate of MTAP, 37° C.
[1] = substrate: COc1ccccc1SC[C@H]1O[C@@H](n2cnc3c(N)ncnc32)[C@H](O)[C@@H]1O
Description: (§1) An enzymatic assay to determine the activity of MTAP against a given substrate was performed. Human MTAP containing an N-terminal six-histidine tag was expressed in E. coli BL21 DE3 cells. The protein was purified to homogeneity by Ni2+ affinity chromatography. Enzymatic activity was measured using a coupled spectrophotometric assay designed to monitor the reaction product adenine (Savarese, T. M., Crabtree, G. W., and Parks, R. E. Jr., (1980) Biochem. Pharmacol. 30, 189-199). Various concentrations of the indicated 5′-deoxymethylthio adenosine (MTA) or substrate were incubated in assay buffer (40 mM potassium phosphate buffer, 1 mM, and DTT 0.8 units/ml xanthine oxidase coupling enzyme) for 5 minutes at 37° C. The reaction was initiated by the addition of MTAP. The exact concentration of enzyme used varied for each substrate tested and ranged from 2 nM to 500 nM. Activity as a function of enzyme concentration was determined for each substrate tested to ensure that the appropriate enzyme concentration was used. Activity was detected by continuous monitoring of absorbance at 305 nm for 10 minutes (ΔE=15,500 M^−1).
(§2) Library compounds (10 and 50 uM) were tested using the assay described above with 2 nM MTAP enzyme. The resultant initial velocities are reported as a percentage of the initial velocity observed when MTA is the substrate. MTA controls, 10 and 50 uM concentrations, were run on each plate alongside the library compounds.

[2] = substrate: Cc1cccc(SC[C@H]2O[C@@H](n3cnc4c(N)ncnc43)[C@H](O)[C@@H]2O)c1
Description: as §1, §2

[3] = substrate: Cc1cccc(CSC[C@H]2O[C@@H](n3cnc4c(N)ncnc43)[C@H](O)[C@@H]2O)c1
Description: as §1, §2

[4] = substrate: CSC[C@@H]1C[C@@H](O)[C@H](n2cnc3c(N)ncnc32)O1
Description: as §1, §2

[5] = substrate: Nc1ncnc2c1ncn2[C@@H]1O[C@H](CSc2ccncc2)[C@@H](O)[C@H]1O
Description: as §1, §2

[6] = substrate: Nc1ncnc2c1ncn2[C@@H]1O[C@H](CSCCc2ccccn2)[C@@H](O)[C@H]1O
Description: as §1, §2

[7] = substrate: Nc1ncnc2c1ncn2[C@@H]1O[C@H](CSCc2ccco2)[C@@H](O)[C@H]1O
Description: as §1, §2

[8] = substrate: Nc1ncnc2c1ncn2[C@@H]1O[C@H](CSc2ccc3ccccc3n2)[C@@H](O)[C@H]1O
Description: as §1, §2

[9] = substrate: COc1ccc(OC[C@H]2O[C@@H](n3cnc4c(N)ncnc43)[C@H](O)[C@@H]2O)cc1
Description: as §1, §2

[10] = substrate: Nc1ncnc2c1ncn2[C@@H]1O[C@H](CSCc2cccs2)[C@@H](O)[C@H]1O
Description: as §1, §2

[11] = substrate: Nc1ncnc2c1ncn2[C@@H]1O[C@H](CSc2ccccn2)[C@@H](O)[C@H]1O
Description: as §1, §2

[12] = substrate: CSC[C@H]1O[C@@H](n2cnc3c(N)ncnc32)[C@H](O)[C@@H]1O
Description: as §1, §2

[13] = substrate: CSC[C@H]1O[C@@H](n2cnc3c(N)ncnc32)[C@H](N=[N+]=[N-])[C@@H]1O
Description: as §1, §2

[14] = substrate: Nc1ncnc2c1ncn2[C@@H]1O[C@H](CSc2ncc[nH]2)[C@@H](O)[C@H]1O
Description: as §1, §2

[15] = substrate: CC(C)CCSC[C@H]1O[C@@H](n2cnc3c(N)ncnc32)[C@H](O)[C@@H]1O
Description: as §1, §2

[16] = substrate: CC(C)CSC[C@@H]1O[C@H](n2cnc3c(N)ncnc32)[C@H](O)[C@@H]1O
Description: as §1, §2

[17] = substrate: Nc1ncnc2c1ncn2[C@@H]1O[C@H](CNc2ccccc2)[C@@H](O)[C@H]1O
Description: as §1, §2

[18] = substrate: CCN(C)C(=O)[C@H]1O[C@@H](n2cnc3c(N)ncnc32)[C@H](O)[C@@H]1O
Description: as §1, §2

[19] = substrate: Nc1ncnc2c1ncn2[C@@H]1O[C@H](CSCc2ccc(F)cc2)[C@@H](O)[C@H]1O
Description: as §1, §2

B1: Human MTAP (Homo sapiens) (protein)
chain: MASGTTTTAVKIGIIGGTGLDDPEILEGRTEKYVDTPFGKPSDALILGKIKNVDCVLLARHGRQHTIMPSKVNYQANIWALKEEGCTHVIVTTACGSLREEIQPGDIVIIDQFIDRTTMRPQSFYDGSHSCARGVCHIPMAEPFCPKTREVLIETAKKLGLRCHSKGTMVTIEGPRFSSRAESFMFRTWGADVINMTTVPEVVLAKEAGICYASIAMATDYDCWKEHEEAVSVDRVLKTLKENANKAKSLLLTTIPQIGSTEWSETLHNLKNMAQFSVLLPRH
notes: six-histidine tag (His6) (N); made in house; host or cells: E. coli BL21 DE3
Km [1]: 13 µM | kcat [1]: 0.13 s⁻¹ | Km [2]: 2 µM | kcat [2]: 2.4 s⁻¹ | Km [3]: 4 µM | kcat [3]: 1.82 s⁻¹ | Km [4]: 3.9 µM | kcat [4]: 0.004 s⁻¹ | Km [5]: 0.88 µM | kcat [5]: 0.23 s⁻¹ | Km [6]: 10.2 µM | kcat [6]: 1.01 s⁻¹ | Km [7]: 4.45 µM | kcat [7]: 6.15 s⁻¹ | Km [8]: 6.9 µM | kcat [8]: 3.16 s⁻¹ | Km [9]: 10 µM | kcat [9]: 0.54 s⁻¹ | Km [10]: 6 µM | kcat [10]: 4.6 s⁻¹ | Km [11]: 5.2 µM | kcat [11]: 3.44 s⁻¹ | Km [12]: 2.233 µM | kcat [12]: 3.97 s⁻¹ | Km [13]: 3600 µM | kcat [13]: 0.04 s⁻¹ | Km [14]: 9 µM | kcat [14]: 3.8 s⁻¹ | Km [15]: 2.8 µM | kcat [15]: 5.5 s⁻¹ | Km [16]: 3.1 µM | kcat [16]: 2.3 s⁻¹ | Km [17]: 8.5 µM | kcat [17]: 2.02 s⁻¹ | Km [18]: 300 µM | kcat [18]: 0.8 s⁻¹ | Km [19]: 5.4 µM | kcat [19]: 2.24 s⁻¹
